The results in this text go back to IntAct's records for PubMed 15811349.

One assay has as its target afad_human AFDN (UniProt P55196).
Another assay addresses pick1_mouse Pick1 (UniProt Q62083).
UniProt Q62083, sequence (Q62083 whole entry): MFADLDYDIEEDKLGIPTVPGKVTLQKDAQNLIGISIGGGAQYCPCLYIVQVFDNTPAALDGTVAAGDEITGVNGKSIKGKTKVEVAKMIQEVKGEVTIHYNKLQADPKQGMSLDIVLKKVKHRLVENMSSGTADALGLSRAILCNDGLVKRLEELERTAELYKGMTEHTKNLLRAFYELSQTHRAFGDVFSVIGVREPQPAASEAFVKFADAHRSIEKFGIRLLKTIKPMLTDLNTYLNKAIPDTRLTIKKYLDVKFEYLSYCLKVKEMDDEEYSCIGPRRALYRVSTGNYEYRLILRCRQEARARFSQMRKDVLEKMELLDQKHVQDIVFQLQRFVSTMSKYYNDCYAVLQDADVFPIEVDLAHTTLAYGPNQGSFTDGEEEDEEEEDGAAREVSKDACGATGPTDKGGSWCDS

UniProt P55196, sequence (P55196 whole entry): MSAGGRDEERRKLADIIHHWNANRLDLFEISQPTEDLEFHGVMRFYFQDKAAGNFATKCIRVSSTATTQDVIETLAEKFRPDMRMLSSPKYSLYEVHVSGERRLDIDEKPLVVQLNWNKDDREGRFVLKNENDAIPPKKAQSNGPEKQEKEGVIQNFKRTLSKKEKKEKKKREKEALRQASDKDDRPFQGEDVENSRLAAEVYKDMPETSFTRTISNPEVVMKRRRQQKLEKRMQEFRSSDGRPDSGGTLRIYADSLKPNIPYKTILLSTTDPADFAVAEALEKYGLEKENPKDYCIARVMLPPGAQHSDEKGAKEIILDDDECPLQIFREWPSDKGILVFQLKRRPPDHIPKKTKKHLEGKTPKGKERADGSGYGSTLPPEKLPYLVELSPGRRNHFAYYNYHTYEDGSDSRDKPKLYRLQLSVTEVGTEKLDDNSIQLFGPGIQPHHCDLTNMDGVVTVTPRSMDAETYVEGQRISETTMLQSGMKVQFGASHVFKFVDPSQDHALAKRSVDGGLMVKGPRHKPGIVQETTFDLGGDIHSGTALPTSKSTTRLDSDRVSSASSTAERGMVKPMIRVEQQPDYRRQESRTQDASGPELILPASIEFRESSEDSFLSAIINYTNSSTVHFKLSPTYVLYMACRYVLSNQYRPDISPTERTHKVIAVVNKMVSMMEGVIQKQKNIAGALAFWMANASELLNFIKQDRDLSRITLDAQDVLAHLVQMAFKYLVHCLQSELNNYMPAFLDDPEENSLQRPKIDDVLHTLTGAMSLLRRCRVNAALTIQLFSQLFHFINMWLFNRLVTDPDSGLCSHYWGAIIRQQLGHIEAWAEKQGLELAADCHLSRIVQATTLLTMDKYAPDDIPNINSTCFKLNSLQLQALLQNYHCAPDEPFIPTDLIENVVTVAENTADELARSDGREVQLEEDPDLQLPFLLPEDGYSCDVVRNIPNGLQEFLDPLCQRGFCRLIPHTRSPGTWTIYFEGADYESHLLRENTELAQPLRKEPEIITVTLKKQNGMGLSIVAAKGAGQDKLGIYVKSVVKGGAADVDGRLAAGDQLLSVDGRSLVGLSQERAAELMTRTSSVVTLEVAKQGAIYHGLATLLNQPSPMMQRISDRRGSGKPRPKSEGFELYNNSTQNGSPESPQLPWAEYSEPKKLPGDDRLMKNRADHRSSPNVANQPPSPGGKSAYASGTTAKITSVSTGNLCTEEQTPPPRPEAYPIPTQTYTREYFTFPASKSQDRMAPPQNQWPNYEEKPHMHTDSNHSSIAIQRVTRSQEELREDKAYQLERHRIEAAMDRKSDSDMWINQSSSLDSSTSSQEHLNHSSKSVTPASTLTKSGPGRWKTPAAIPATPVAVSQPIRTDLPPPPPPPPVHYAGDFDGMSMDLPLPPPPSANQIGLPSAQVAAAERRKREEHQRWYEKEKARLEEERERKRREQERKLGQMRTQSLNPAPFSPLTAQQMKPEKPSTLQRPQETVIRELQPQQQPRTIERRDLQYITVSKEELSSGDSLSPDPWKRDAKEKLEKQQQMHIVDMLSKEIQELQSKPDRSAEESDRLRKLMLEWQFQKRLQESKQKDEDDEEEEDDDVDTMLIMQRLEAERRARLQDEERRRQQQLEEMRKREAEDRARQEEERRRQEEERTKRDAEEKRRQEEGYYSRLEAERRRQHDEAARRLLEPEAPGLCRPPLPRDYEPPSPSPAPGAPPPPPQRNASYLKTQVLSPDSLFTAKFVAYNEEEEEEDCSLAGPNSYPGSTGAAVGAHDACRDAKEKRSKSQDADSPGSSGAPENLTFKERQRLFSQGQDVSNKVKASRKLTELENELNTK

As for “Nectin-3 (Homo sapiens) (from UniProt Q9NQS3) Y548A”, the “effect of a mutation on the interaction” value in the assay with afad_human AFDN is listed as “disrupting interaction”.
Take “Nectin-3 (Homo sapiens) (from UniProt Q9NQS3) V549A”: the “effect of a mutation on the interaction” value in the assay with afad_human AFDN is “disrupting interaction”; in the assay with pick1_mouse Pick1 it was “decreasing interaction”.
In the case of “Nectin-3 (Homo sapiens) (from UniProt Q9NQS3) E546G”, the “effect of a mutation on the interaction” value in the assay with pick1_mouse Pick1 is on record as “disrupting interaction”.
